In patent publication US20110105394A1 (Novo Nordisk, published 2011):
*1 amine or outer side, *2 acyl side, *3 side chain or, on linkers, in order; H or OH if unused. Bridges are numbered along the chain shown (N, C = ends). Where no end group is shown, it is not given here. The star is where a group is joined. X2 = (S)‑4‑Carboxy‑4‑(19-carboxynonadecanoylamino)butyryl, O=C(O)CCCCCCCCCCCCCCCCCCC(=O)N[C@@H](CCC(=O)*)C(=O)O; C20 diacid = O=C(O)CCCCCCCCCCCCCCCCCCC(=O)*; γGlu = O=C(O)[C@H](CCC(=O)[*:2])N[*:1]; AEEA = NCCOCCOCC(=O)O

T1: Amylin 3(a) receptor (human calcitonin receptor (CTa) with RAMP-3) (human, UniProt P30988 25-474; O60896 24-148, limits assumed)
T1 sequence (looked up) 1: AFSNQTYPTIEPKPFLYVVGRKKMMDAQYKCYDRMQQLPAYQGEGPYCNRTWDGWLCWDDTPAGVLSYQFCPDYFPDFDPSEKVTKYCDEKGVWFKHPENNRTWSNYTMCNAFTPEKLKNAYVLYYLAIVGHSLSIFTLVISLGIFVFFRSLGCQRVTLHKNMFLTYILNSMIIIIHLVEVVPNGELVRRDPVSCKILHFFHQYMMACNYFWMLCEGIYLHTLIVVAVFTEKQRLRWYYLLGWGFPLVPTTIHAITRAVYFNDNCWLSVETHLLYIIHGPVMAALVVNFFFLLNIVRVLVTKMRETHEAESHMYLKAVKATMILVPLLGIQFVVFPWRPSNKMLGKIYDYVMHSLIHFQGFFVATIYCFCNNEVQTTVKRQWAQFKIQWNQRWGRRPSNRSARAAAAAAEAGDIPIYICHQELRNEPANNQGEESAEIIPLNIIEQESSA
T1 sequence (looked up) 2: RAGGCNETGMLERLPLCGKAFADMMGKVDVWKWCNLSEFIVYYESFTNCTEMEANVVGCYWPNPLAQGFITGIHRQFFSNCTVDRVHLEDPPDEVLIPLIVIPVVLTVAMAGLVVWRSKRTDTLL


molecular target: T1, Amylin 3(a) receptor (human calcitonin …); experiment: cell-based or functional assay

Binder | Potency Luciferase [nM]
{C20 diacid-γGlu-AEEA}-HHRCNTATCATQRLANFLRHSSQNFGPILPPTNVGSNTY-NH2 (disulfide 4-9; SMILES CC[C@H](C)[C@H](NC(=O)[C@@H]1CCCN1C(=O)CNC(=O)[C@H](Cc1ccccc1)NC(=O)[C@H](CC(N)=O)NC(=O)[C@H](CCC(N)=O)NC(=O)[C@H](CO)NC(=O)[C@H](CO)NC(=O)[C@H](Cc1c[nH]cn1)NC(=O)[C@H](CCCNC(=N)N)NC(=O)[C@H](CC(C)C)NC(=O)[C@H](Cc1ccccc1)NC(=O)[C@H](CC(N)=O)NC(=O)[C@H](C)NC(=O)[C@H](CC(C)C)NC(=O)[C@H](CCCNC(=N)N)NC(=O)[C@H](CCC(N)=O)NC(=O)[C@@H](NC(=O)[C@H](C)NC(=O)[C@@H]1CSSC[C@H](NC(=O)[C@H](CCCNC(=N)N)NC(=O)[C@H](Cc2c[nH]cn2)NC(=O)[C@H](Cc2c[nH]cn2)NC(=O)COCCOCCNC(=O)CC[C@H](NC(=O)CCCCCCCCCCCCCCCCCCC(=O)O)C(=O)O)C(=O)N[C@@H](CC(N)=O)C(=O)N[C@@H]([C@@H](C)O)C(=O)N[C@@H](C)C(=O)N[C@@H]([C@@H](C)O)C(=O)N1)[C@@H](C)O)C(=O)N[C@@H](CC(C)C)C(=O)N1CCC[C@H]1C(=O)N1CCC[C@H]1C(=O)N[C@H](C(=O)N[C@@H](CC(N)=O)C(=O)N[C@H](C(=O)NCC(=O)N[C@@H](CO)C(=O)N[C@@H](CC(N)=O)C(=O)N[C@H](C(=O)N[C@@H](Cc1ccc(O)cc1)C(N)=O)[C@@H](C)O)C(C)C)[C@@H](C)O) | 0.1
{C20 diacid-γGlu}-KCNTATCATQRLANFLHHSSNNFGPILPPTNVGSNTY-NH2 (disulfide 2-7) [N-alpha-[(S)-4-Carboxy-4-(19-carboxynonadecanoylamino)butyryl]-[His17]-pramlintide] | 0.2
X2-ERHRCNTATCATQRLANFLHHSSNNFGPILPPTNVGSNTY-NH2 (disulfide 5-10; SMILES CC[C@H](C)[C@H](NC(=O)[C@@H]1CCCN1C(=O)CNC(=O)[C@H](Cc1ccccc1)NC(=O)[C@H](CC(N)=O)NC(=O)[C@H](CC(N)=O)NC(=O)[C@H](CO)NC(=O)[C@H](CO)NC(=O)[C@H](Cc1c[nH]cn1)NC(=O)[C@H](Cc1c[nH]cn1)NC(=O)[C@H](CC(C)C)NC(=O)[C@H](Cc1ccccc1)NC(=O)[C@H](CC(N)=O)NC(=O)[C@H](C)NC(=O)[C@H](CC(C)C)NC(=O)[C@H](CCCNC(=N)N)NC(=O)[C@H](CCC(N)=O)NC(=O)[C@@H](NC(=O)[C@H](C)NC(=O)[C@@H]1CSSC[C@H](NC(=O)[C@H](CCCNC(=N)N)NC(=O)[C@H](Cc2c[nH]cn2)NC(=O)[C@H](CCCNC(=N)N)NC(=O)[C@H](CCC(=O)O)NC(=O)CC[C@H](NC(=O)CCCCCCCCCCCCCCCCCCC(=O)O)C(=O)O)C(=O)N[C@@H](CC(N)=O)C(=O)N[C@@H]([C@@H](C)O)C(=O)N[C@@H](C)C(=O)N[C@@H]([C@@H](C)O)C(=O)N1)[C@@H](C)O)C(=O)N[C@@H](CC(C)C)C(=O)N1CCC[C@H]1C(=O)N1CCC[C@H]1C(=O)N[C@H](C(=O)N[C@@H](CC(N)=O)C(=O)N[C@H](C(=O)NCC(=O)N[C@@H](CO)C(=O)N[C@@H](CC(N)=O)C(=O)N[C@H](C(=O)N[C@@H](Cc1ccc(O)cc1)C(N)=O)[C@@H](C)O)C(C)C)[C@@H](C)O) [N-alpha-[(S)-4-Carboxy-4-(19-carboxynonadecanoylamino)butyryl]-Glu-Arg-His-[Arg1,His17]-pramlintide] | 0.1
CNTATCATQRLANFLHHSSNNFGPILPPTNVGSNTY-NH2 (disulfide 1-6; not fully specified (N-terminus); printed as N-alpha-[2-(2-{2-[2-(2-{2-[(S)-4-Carboxy-4-(19-carboxyheptadecanoylamino)butyrylamino]ethoxy}ethoxy)acetylamino]ethoxy}ethoxy)acetyl]-[His17]-pramlintide (2-37)) | 0.07
